In US20070243589A1 (Pfizer, published 2007):
Changes are numbered by the printed parent chain.

T1: IL-26 (human, UniProt Q9NPH9)
T1 construct: coated on the ELISA plate at 1 µg/ml; also called human IL-26
T1 sequence (cytokine, looked up): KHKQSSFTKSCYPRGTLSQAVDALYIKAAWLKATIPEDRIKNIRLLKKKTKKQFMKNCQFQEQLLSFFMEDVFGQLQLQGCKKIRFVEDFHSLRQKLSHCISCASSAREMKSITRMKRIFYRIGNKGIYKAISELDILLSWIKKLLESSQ

T2: human IL-22 (human, UniProt Q9GZX6 34-179)
T2 sequence: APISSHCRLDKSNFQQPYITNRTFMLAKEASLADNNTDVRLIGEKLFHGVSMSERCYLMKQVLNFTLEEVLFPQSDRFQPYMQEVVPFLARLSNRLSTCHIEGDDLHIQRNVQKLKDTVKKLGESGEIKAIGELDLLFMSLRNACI

T3: biotinylated IL-22 with an N-terminal His/FLAG tag (bio.IL-22H/F) (human, UniProt Q9GZX6 34-179, biotinylated (site not stated))
T3 construct: not shown: N-terminal His/FLAG tag
T3 sequence: T2 sequence

B1: 062A09 (antibody, V domains shown)
VH: QVQLVQSGAEVKKPGASVKVSCKASGYTFTSYGISWVRQAPGQGLEWMGWVSAYTGNTNYAQKFQGRVTMTTDTSTSTAYMELRSLRSDDTAVYYCARDRGYYDAFDIWGQGTLVTVSS
VL: DIQMTQSPSTLSASVGDRVTITCRASEGIYHWLAWYQQKPGKAPKLLIYKASSLASGVPSRFSGSGSGTEFTLTISSLQPDDFATYYCQQMGEYNATFGGGTKVEIKR
notes: The list MOLECULES holds only the non-germlined 062A09 IgG; also called 062A09 germlined IgG
B2: 367D04 scFv (non-germlined) (scFv)
scFv: EVQLVESGGGVVRPGGSLRLSCAASGFTFDDYGMNWVRQAPGKGLEWVSGVNWNGGTRDYAASVKGRFTISRDNAKNSLYLQMNSLRAEDTALYYCARGWYSGSPWSLGHWGRGTLVTVSSGGGGSGGGGSGGSGGGSGGSGGGSSGGGSGGGGSAQAVLTQPSSVSGSPGQSVTISCTGASGDVGAYNFVSWYQQHPGKTPKLIIYDVNKRPSGVSNRFSGSKSGNTASLTISRLQAEDESDYYCSSYTSRYTTEFGGGTKVTVLGAAAH
notes: Optimized clone derived from GIL60
B3: 376B10 scFv (non-germlined) (scFv)
scFv: EVQLVQSGAEVKKPGASVKVSCQASGYTFSDYYIHWVRQTPGQGFEWMGWVNPDTGGTRYAQKFQGWVTMTRDMSNTTAYMELPGLRDDDTAVYYCARDLTGYDQYTAWGQGTLVTVSSGGGGSGGGGSGGGGSAQSVLTQPPSVSVAPGKTATITCGGNNFRNKRVHWYQQRPGQAPVLVIYYDSDRPSGIPERFSGSRSGNTATLTISRVEAGDEADFYCSTFDPFTDRPLFGGGTKLTVLGAAAH
notes: Optimized clone derived from GIL68
B4: 375G06 scFv (non-germlined) (scFv)
scFv: EVQLVQSGAEVKKPGASVKVSCQASGYTFSDYYIHWVRQTPGQGFEWMGWVNPDTGGTRYAQKFQGWVTMTRDMSNTTAYMELPRLRDDDTAVYYCARDLTGYDYYDRWGQGTLVTVSSGGGGSGGGGSGGGGGGSGGGGGGSGGGGSAQSVLTQPPSMSVAPGKTATITCGGNNFRNKRVHWYQQRPGQAPVLVIYYDSDRPSGIPERFSGSRSGNTATLTISRVEAGDEADFYCQVWDFLADEAMFGGGTKLTVLGAAAH
notes: as for B3
B5: 087B03 scFv (non-germlined) (scFv)
scFv: EVQLVESGGGVVRPGGSLRLSCAASGFTFDDYGMNWVRQAPGKGLEWVSGVNWNGGTRDYAASVKGRFTISRDNAKNSLYLQMNSLRAEDTALYYCARGWYSGAAWNMGYWGRGTLVTVSSGGGGSGGGGSGGGGSAQAVLTQPSSVSGSPGQSITISCTGASGDVGAYNFVSWYQQHPGKTPKLIIYDVNKRPSGVSNRFSGSKSSNTASLTISGLQAEDESDYYCSSYTSTFSVVFGGGTKVTVLGAAAH
notes: as for B2
B6: 355E04 scFv (non-germlined) (scFv)
scFv: QVQLVQSGAEVKKPGASVKVSCKASGYTFTHYYMHWVRQAPGQGLEWVGWINPYTGGAFYAQKFQGRVTMTRDTSINTAYMELSRLGSDDTAVYYCAREPEKFDSPNAEIWGRGTMVTISSEGGGSGGGGSGGSGSAQAVLTQPSSVSGAPGQRVTISCTGSSSNIGAGYGVHWYQQLPGTAPKLLIYGNSNRPSGVPDRFSGSKSGTSASLAITGLQAEDEADYYCQSYDSSLSGYVFGTGTQLTVLSA
notes: Optimized clone derived from GIL92
B7: 368D04 scFv (non-germlined) (scFv)
scFv: EVQLVESGGGVVRPGGSLRLSCAASGFTFDDYGMNWVRQAPGKGLEWVSGVNWNGGTRDYAASVKGRFTISRDNAKNSLYLQMNSLRAEDTALYYCARGWYSGAAWNMGYWGRGTLVTVSSGGGGSGGGGSGGSGGGSGGGGGGSGGGGSAQAVLTQPSSVSGSPGQSITISCTGASGDVGAYNFVSWYQQHPGKTPKLIIYDVNKRPSGVSNRFSGSKSGNTASLTISGLQAEDESDYYCASLVSDFSVVFGGGTKVTVLGAAAH
notes: as for B2
B8: 354A08 scFv (non-germlined) (scFv)
scFv: QVQLVQSGAEKKPGASVKVSCKASGYTFTDYYMHWVRQAPGQGLEWVGWINPYTGGAFYAQKFRGRVTMTRDTSINTAYMELSRLGSDDTAVYYCAREPERFGDSTGQVWGRGTMVTVSSGGGGSGGGGSGGSRSAQAVLTQPSSVSGAPRQRVTISCTGSSSNIGAGYGVHWYQQLPGTAPKLLIYGNSNRPSGVPDRFSGSKSGTSASLAITGLQAEDEADYYCYHWDKEQSGYVFGTGTQLTVLSA
notes: as for B6
B9: 062G05 scFv (non-germlined) (scFv)
scFv: QVQLVESGAEVKKPGASVKVSCKASGYTFTSYGISWVRQAPGQGLEWMGWISAYTGNTNYAQKFQGRVTMTTDTSTSTAYMELRSLRSDDTAVYYCARDRGYYDAFDIWGQGTLVTVSSGGGGSGGGGSGGGGSDIQMTQSPSTLSASIGDRVTITCRASEGIYHWLAWYQQKPGKAPKLLIYKASSLASGAPSRFSGSGFGTDFTLTISSLQPDDFATYYCQQMGEWKAAFGGGTKLEIKRAAAH
notes: Optimized clone derived from GIL16
B10: 062A09 scFv (non-germlined) (scFv)
scFv: B9 scFv with I51V, S85G, F106Y, W228Y, K229N, A231T, F232I
notes: as for B9
B11: 355B06 scFv (non-germlined) (scFv)
scFv: EVQLVQSGAEVKKPGASVKVSCQASGYTFTDYYMHWVRQAPGQGLEWVGWINPYTGSAFYAQKFRGRATMTRNTSINTAYMELSRLGSDDTAVYYCAREPEKFGESSGQLWGRGTMVTISSGGGGSGGGGSGGSGSAQAVLTQPSSVSGAPGQRVTISCTGSSSNIGPGYGVHWYQQLPGTAPKLLIYGDSNRPSGVPDRFSGSKSGTSASLAITGLQAEDEADYYCQSYDSGLSGYVFGTGTQLTVLSA
notes: as for B6
B12: 062G05 IgG (non-germlined) (antibody, V domains shown)
VH: B1 VH with Q6E, V51I
VL: B1 VL with V15I, V58A, S67F, E70D, Y94W, N95K, T97A, V104L
notes: IgG
B13: 166G05 scFv (non-germlined) (scFv)
scFv: EVQLVQSGAEVKKPGASVKVSCQASGYTFSDYYIHWVRQTPGQGFEWMGWVNPDTGGTRYAQKFQGWVTMTRDMSNTTAYMELPRLRDDDTAVYYCARDLTGFDPFDIWGQGTLVTVSSGGGGSGGGGSGGGGSAQSVLTQPPSVSVAPGKTATITCGGNNFRNKRVHWYQQRPGQAPVLVIYYDSDRPSGIPERFSGSRSGNTATLTISRVEAGDEADFYCQVWDFLTDSGSFGGGTKLTVLGAAAH
notes: as for B3
B14: 097D09 scFv (non-germlined) (scFv)
scFv: EVQLVESGGGLVTPGGSLRLSCAASGFTFSDYYMSWVRQAPGRGLEWVSAISGSGGSTYYADSVKGRITISRDNAKNSLYLQMSSLRSEDTAVYYCARGLWVWDPLDYWGRGTLVTVSSGGGGSGGGGSGGGGSDIQMTQSPSTLSASIGDRVTITCRASEGIYHWLAWYQQKPGKAPKLLIYKASSLASGAPSRFSGSGFGTDFTLTISSLQPDDFATYYCQQYSEFAWTFGGGTKLEIKRAAAH
notes: Optimized clone derived from GIL01
B15: 356A11 scFv (non-germlined) (scFv)
scFv: QVQLVQSGAEVKKPGASVKVSCKASGYTFTNYYMHWVRQAPGQGLEWVGWINPYTGSAFYAQKFRGRVTMTRDTSINTAYMELSRLGSDDTAVYYCAREPEKFDSDDSDVWGRGTMVTVSGGGGSSGGGGSGGSGSAQAVLTPPSVSGAPGQRVTISCTGSSSNIGAGYGVHWYQQLPGTAPKLIIYGDSSRPSGVPDRFSGSKSGTSASLAITGLQAEDEADYYCQSYDNSLSGYVFGTGTQLTVLSA
notes: as for B6

Target: T1, IL-26
Assay: ELISA: plate coated with 1 µg/ml human IL-26, IgG at 1 µg/ml, HRP anti-human IgG, A450
Method: (§1) Cross species reactivity of germlined and non-germlined optimized antibodies were determined as follows: ELISA plates (Costar, Cat. #3590) were coated overnight with 1 μg/ml of rat, mouse, or human IL-22 or human IL-26 in PBS buffer. Plates were washed with PBST buffer (0.05% Tween20 in PBS) 3 times, then blocked with 1% BSA (Sigma A8918)/PBST for 1 hr at RT. Antibodies were added at 1 μg/ml, incubated 1 hr at 25° C. […] The plates were incubated for 1 hour at 25° C., then washed with PBST, and developed with TMB (KPL, Cat. #50-76-04). Reaction was stopped with 0.18 M H₂S0₄. Plates were read at OD 450 nm.

Binder	binding result
B1	no binding (tested: 1 µg/ml (single concentration))

Target: T2, human IL-22
Assay: cell-based or functional assay

IC50 of scFv in BaF3-IL-22 proliferation assay [nM]	IC50 of IgG in BaF3-IL-22 proliferation assay [nM]	Binder
0.16	–	B2
0.104	–	B3
0.118	–	B4
0.212	–	B5
0.192	–	B6
0.186	–	B7
0.219	–	B8
0.182	–	B9
0.267	–	B10
0.183	–	B11
–	0.112	B12
0.204	–	B13
0.298	–	B14
0.124	–	B15

Target: T3, biotinylated IL-22 with an N-terminal …
Assay: DELFIA competition assay: scFv titrated against bio.IL-22H/F binding to the captured IL-22 receptor complex
Method: Microtiter plates were coated with an IL-22 receptor complex antibody (1 μg/ml in PBS), and incubated for 1.5 hours at room temperature. Plates were washed three times in PBST, and blocked for 1 hour at room temperature with 2% MPBS. After a further 3 washes, diluted cell conditioned medium containing an IL-22 receptor complex was added and incubated overnight at 4° C. Crude scFv supernatants were prepared as described above. The following day, 25 μl of diluted scFv sample and 25 μl of bio.IL-22H/F (6 ng/ml) were added to the washed plates, and incubated for 1.5 hours at room temperature. Plates were washed 3 times in PBST, then binding of bio.IL-22H/F to the IL-22 receptor complex was detected with Europium-Streptavidin and the DELFIA® reagent kit (PerkinElmer). Time Resolved Fluorescence was measured using a Victor 2™ Plate Reader (Perkin Elmer).
Purified scFv from positive clones identified from the screening were tested in the DELFIA® IL-22 receptor complex competition assay as described above. A titration of scFv concentrations was used in order to establish the clone potency as measured by IC₅₀ values in the assay. Fourteen optimized clones were designated 097D09, 062A09, 062G05, 087B03, 367D04, 368D04, 166B06, 166G05, 375G06, 376B10, 354A08, 355B06, 355E04, and 356A11.

IC50 [nM]	Binder
0.33	B2
0.79	B3
0.44	B4
0.12	B5
0.41	B6
0.32	B7
0.16	B8
0.1	B9
0.13	B10
0.18	B11
0.19	B13
0.39	B14
0.55	B15

Target: T4, BSA (bovine, UniProt P02769)
T4 construct: background wells labelled BSA; also called bovine serum albumin
T4 sequence (P02769 25-607 limits assumed): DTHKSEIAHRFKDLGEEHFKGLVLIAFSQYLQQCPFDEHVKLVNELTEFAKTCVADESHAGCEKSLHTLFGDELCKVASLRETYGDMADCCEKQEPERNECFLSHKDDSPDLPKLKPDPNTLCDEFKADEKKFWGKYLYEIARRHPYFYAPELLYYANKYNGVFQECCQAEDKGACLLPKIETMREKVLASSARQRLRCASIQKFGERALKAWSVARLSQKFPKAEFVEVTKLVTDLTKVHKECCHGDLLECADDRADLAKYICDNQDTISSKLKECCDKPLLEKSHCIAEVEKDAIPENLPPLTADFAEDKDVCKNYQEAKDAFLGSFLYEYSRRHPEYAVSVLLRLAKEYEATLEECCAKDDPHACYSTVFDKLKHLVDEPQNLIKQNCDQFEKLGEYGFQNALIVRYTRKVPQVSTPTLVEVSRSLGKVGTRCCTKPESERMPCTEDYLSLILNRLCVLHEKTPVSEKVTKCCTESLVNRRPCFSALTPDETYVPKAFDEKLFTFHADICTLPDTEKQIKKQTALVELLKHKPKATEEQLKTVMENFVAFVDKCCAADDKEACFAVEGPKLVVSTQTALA
Assay: ELISA: wells labelled BSA, IgG at 1 µg/ml, HRP anti-human IgG, A450
Method: as §1

Binder	binding result
B1	no binding (tested: 1 µg/ml (single concentration))
B12	no binding (tested: 1 µg/ml (single concentration))
